# Reference: patent publication US20040018971A1 (published 2004)
# Where no end group is shown, it is not given here. [ ]: non-standard residue; d: D form. Abu = CC[C@H](N)C(=O)O
# B1: Her2/neu.600 (peptide)
# peptide: CPSGVKPDLSY
# notes: native HER2/neu peptide from position 600
# B2: Her2/neu.65 (9-mer) (peptide)
# peptide: LPTNASLSF
# notes: native HER2/neu peptide from position 65
# B3: Her2/neu.218.B3B7 (peptide)
# peptide: TV[Abu]AGG[Abu]AR
# notes: synthetic analog peptide; also called TVBAGGBAR
# B4: Her2/neu.528.B1B4 (peptide)
# peptide: [Abu]VN[Abu]SQFLR
# notes: synthetic analog peptide; also called BVNBSQFLR
# B5: Her2/neu.528.B1B4K9 (peptide)
# peptide: BVNBSQFLK
# modifications: B at positions 1 and 4 = alpha-amino butyric acid (in place of cysteine)
# notes: synthetic analog peptide; also called BVNBSQFLK
# B6: Her2/neu.1151.F1I9 (peptide)
# peptide: FPREGPLPI
# notes: 9-mer analog of the HER2/neu peptide starting at position 1151
# B7: Her2/neu.995.F1I10 (peptide)
# peptide: FPASPLDSTI
# notes: 10-mer analog of the HER2/neu peptide starting at position 995
# B8: Her2/neu.1157.F1I9 (peptide)
# peptide: FPAARPAGI
# notes: 9-mer analog of the HER2/neu peptide starting at position 1157
# B9: Her2/neu.1149.F1I11 (peptide)
# peptide: FPSPREGPLPI
# notes: 11-mer analog of the HER2/neu peptide starting at position 1149
# Target: HLA-B*0702 (human)
# Experiment: competition with 125I probe peptide, purified HLA
row,Binder,IC50 [nM]
1,FPTNASLSFL (analog peptide) [Her2/neu.65.F1 (10-mer)],18
2,B1,183
3,FPSGVKPDLSI (analog peptide) [Her2/neu.600.F1I11],196

# Target: HLA-B*3501 (human)
# Experiment: competition with 125I probe peptide, purified HLA
row,Binder,IC50 [nM]
1,B2,114
2,FPTNASLSFL (analog peptide) [Her2/neu.65.F1 (10-mer)],200
3,B1,3600
4,FPSGVKPDLSI (analog peptide) [Her2/neu.600.F1I11],3270

# Target: HLA-B*5101 (human)
# Experiment: competition with 125I probe peptide, purified HLA
row,Binder,IC50 [nM]
1,B2,809
2,FPTNASLSFL (analog peptide) [Her2/neu.65.F1 (10-mer)],262

# Target: HLA-B*5301 (human)
# Experiment: competition with 125I probe peptide, purified HLA
row,Binder,IC50 [nM]
1,B2,34
2,FPTNASLSFL (analog peptide) [Her2/neu.65.F1 (10-mer)],172

# Target: HLA-A*0301 (human)
# Experiment: inhibition of 125I probe peptide binding to purified HLA
row,Binder,IC50 [nM]
1,IVWLGLRSLR (synthetic analog peptide) [Her2/neu.450.V2],234
2,HVVPWDQLFR (synthetic analog peptide) [Her2/neu.478.V2],7330
3,HTVPWDQLFR (synthetic peptide) [Her2/neu.478],3140
4,ILWKDIFHK (synthetic peptide) [Her2/neu.167],39
5,IVWKDIFHR (synthetic analog peptide) [Her2/neu.167.V2R9],143
6,TILWKDIFHK (synthetic peptide) [Her2/neu.166],256
7,TVLWKDIFHR (synthetic analog peptide) [Her2/neu.166.V2R10],8460
8,CVNCSQFLR (synthetic peptide) [Her2/neu.528],7330
9,B3,314
10,B4,177
11,B5,34

# Target: HLA-A*1101 (human)
# Experiment: as above
row,Binder,IC50 [nM]
1,IVWLGLRSLR (synthetic analog peptide) [Her2/neu.450.V2],1940
2,HVVPWDQLFR (synthetic analog peptide) [Her2/neu.478.V2],1330
3,HTVPWDQLFR (synthetic peptide) [Her2/neu.478],83
4,ILWKDIFHK (synthetic peptide) [Her2/neu.167],19
5,IVWKDIFHR (synthetic analog peptide) [Her2/neu.167.V2R9],286
6,TILWKDIFHK (synthetic peptide) [Her2/neu.166],1.7
7,TVLWKDIFHR (synthetic analog peptide) [Her2/neu.166.V2R10],286
8,CVNCSQFLR (synthetic peptide) [Her2/neu.528],194
9,B3,111
10,B4,80
11,B5,22

# Target: HLA-A*3101 (human)
# Experiment: as above
row,Binder,IC50 [nM]
1,IVWLGLRSLR (synthetic analog peptide) [Her2/neu.450.V2],11
2,HVVPWDQLFR (synthetic analog peptide) [Her2/neu.478.V2],391
3,HTVPWDQLFR (synthetic peptide) [Her2/neu.478],19
4,ILWKDIFHK (synthetic peptide) [Her2/neu.167],82
5,IVWKDIFHR (synthetic analog peptide) [Her2/neu.167.V2R9],6
6,TILWKDIFHK (synthetic peptide) [Her2/neu.166],487
7,TVLWKDIFHR (synthetic analog peptide) [Her2/neu.166.V2R10],600
8,CVNCSQFLR (synthetic peptide) [Her2/neu.528],34
9,B3,247
10,B4,38
11,B5,60

# Target: HLA-A*3301 (human)
# Experiment: as above
row,Binder,IC50 [nM]
1,IVWLGLRSLR (synthetic analog peptide) [Her2/neu.450.V2],193
2,HVVPWDQLFR (synthetic analog peptide) [Her2/neu.478.V2],193
3,HTVPWDQLFR (synthetic peptide) [Her2/neu.478],88
4,ILWKDIFHK (synthetic peptide) [Her2/neu.167],967
5,IVWKDIFHR (synthetic analog peptide) [Her2/neu.167.V2R9],16
6,TILWKDIFHK (synthetic peptide) [Her2/neu.166],690
7,TVLWKDIFHR (synthetic analog peptide) [Her2/neu.166.V2R10],76
8,CVNCSQFLR (synthetic peptide) [Her2/neu.528],50
9,B3,242
10,B4,58
11,B5,4260

# Target: HLA-A*6801 (human)
# Experiment: as above
row,Binder,IC50 [nM]
1,IVWLGLRSLR (synthetic analog peptide) [Her2/neu.450.V2],7.3
2,HVVPWDQLFR (synthetic analog peptide) [Her2/neu.478.V2],3.6
3,HTVPWDQLFR (synthetic peptide) [Her2/neu.478],4
4,ILWKDIFHK (synthetic peptide) [Her2/neu.167],1740
5,IVWKDIFHR (synthetic analog peptide) [Her2/neu.167.V2R9],15
6,TILWKDIFHK (synthetic peptide) [Her2/neu.166],200
7,TVLWKDIFHR (synthetic analog peptide) [Her2/neu.166.V2R10],42
8,CVNCSQFLR (synthetic peptide) [Her2/neu.528],18
9,B3,8
10,B4,10
11,B5,15

# Target: HLA-B*0702 (human)
# Experiment: competition vs 125I-labelled probe peptide, purified HLA, gel filtration
row,Binder,IC50 [nM]
1,B6,0.3
2,B7,20
3,B8,9.3
4,B9,190

# Target: HLA-B*5101 (human)
# Experiment: as above
row,Binder,IC50 [nM]
1,B6,14
2,B7,20
3,B8,131
4,B9,262

# Target: HLA-B*5301 (human)
# Experiment: as above
row,Binder,IC50 [nM]
1,B6,2820
2,B7,30
3,B8,4230
4,B9,5170

# Target: HLA-B*5401 (human)
# Experiment: as above
row,Binder,IC50 [nM]
1,B6,4
2,B7,14
3,B8,48
4,B9,263

# Target: T1, HLA-A*0201 (human)
# T1 construct: also called HLA-A2.1
# Experiment: competitive inhibition of 125I-labelled standard peptide binding to purified HLA, gel filtration
row,Binder,relative binding ratio (IC50 of standard peptide / IC50 of test peptide) [ratio]
1,"MARDPQRFV (Synthetic peptide) [HER2/neu A02 supermotif peptide, position 979, 9 amino acids]",0.0001
2,"LVCPLHNQEV (Synthetic peptide) [HER2/neu A02 supermotif peptide, position 313, 10 amino acids]",0.0002
3,"LVSEFSRMA (Synthetic peptide) [HER2/neu A02 supermotif peptide, position 972, 9 amino acids]",0.0001
4,"MAGVGSPYV (Synthetic peptide) [HER2/neu A02 supermotif peptide, position 774, 9 amino acids]",0.0014
5,"LVDAEEYLV (Synthetic peptide) [HER2/neu A02 supermotif peptide, position 1017, 9 amino acids]",0.003
6,"NVKIPVAIKV (Synthetic peptide) [HER2/neu A02 supermotif peptide, position 745, 10 amino acids]",0.0001
7,"PAARPAGATL (Synthetic peptide) [HER2/neu A02 supermotif peptide, position 1158, 10 amino acids]",0.0001
8,"PAREIPDLL (Synthetic peptide) [HER2/neu A02 supermotif peptide, position 927, 9 amino acids]",0.0001
9,"PAEQRASPL (Synthetic peptide) [HER2/neu A02 supermotif peptide, position 643, 9 amino acids]",0.0001
10,"NLQVIRGRIL (Synthetic peptide) [HER2/neu A02 supermotif peptide, position 427, 10 amino acids]",0.0001
11,"LVSEFSRM (Synthetic peptide) [HER2/neu A02 supermotif peptide, position 972, 8 amino acids]",0.0001
12,"NASLSFLQDI (Synthetic peptide) [HER2/neu A02 supermotif peptide, position 68, 10 amino acids]",0.0001
13,"PAFSPAFDNL (Synthetic peptide) [HER2/neu A02 supermotif peptide, position 1211, 10 amino acids]",0.0001
14,"NVLVKSPNHV (Synthetic peptide) [HER2/neu A02 supermotif peptide, position 850, 10 amino acids]",0.0001
15,"MIMVKCWMI (Synthetic peptide) [HER2/neu A02 supermotif peptide, position 953, 9 amino acids]",0.0051

# Target: T2, HLA-A*0201 (human)
# T2 construct: Purified HLA class I molecule; also called HLA-A2.1
# Experiment: competition with 125I-labelled standard peptide for purified HLA-A*0201, gel filtration; ratio to the standard peptide
row,Binder,relative binding ratio (IC50 of standard peptide / IC50 of test peptide) [ratio]
1,"ELGSGLALI (Synthetic peptide) [HER2/neu peptide, position 460, 9 amino acids]",0.0004
2,"FVHTVPWDQL (Synthetic peptide) [HER2/neu peptide, position 476, 10 amino acids]",0.0001
3,"DLSVFQNLQV [HER2/neu peptide, position 421, 10 amino acids]",0.0003
4,"DLLNWCMQI (Synthetic peptide) [HER2/neu peptide, position 821, 9 amino acids]",0.0002
5,"GAAKGLQSL (Synthetic peptide) [HER2/neu peptide, position 1093, 9 amino acids]",0.0001
6,"FVVIQNEDL (Synthetic peptide) [HER2/neu peptide, position 986, 9 amino acids]",0.0002
7,"GAMPNQAQM (T0001 prints N at position 706) [HER2/neu peptide, position 704, 9 amino acids]",0.0002
8,"GAFGTVYKGI (Synthetic peptide) [HER2/neu peptide, position 729, 10 amino acids]",0.0001
9,"DLVDAEEYL (Synthetic peptide) [HER2/neu peptide, position 1016, 9 amino acids]",0.0002
10,"DVFAFGGAV (Synthetic peptide) [HER2/neu peptide, position 1183, 9 amino acids]",0.0002
11,"ELVSEFSRMA (Synthetic peptide) [HER2/neu peptide, position 971, 10 amino acids]",0.0001
12,"DVWSYGVTV (Synthetic peptide) [HER2/neu peptide, position 904, 9 amino acids]",0.0002
13,"DLVDAEEYLV (Synthetic peptide) [HER2/neu peptide, position 1016, 10 amino acids]",0.0002
14,"EILKGGVLI (Synthetic peptide) [HER2/neu peptide, position 147, 9 amino acids]",0.0001
15,"DVRLVHRDL (Synthetic peptide) [HER2/neu peptide, position 838, 9 amino acids]",0.0002
16,"ELAALCRWGL (Synthetic peptide) [HER2/neu peptide, position 2, 10 amino acids]",0.0001
